Article PMC3725419, “Structural insights into the activation of MST3 by MO25” (Biochemical and Biophysical Research Communications, 2013)

Biological target: T1, full length MO25β (human, UniProt Q9H9S4 1-337)
T1 construct: MO25β (mouse protein-25 beta), full length; plasmids are in the supplementary section; also called mouse protein-25 beta; source: E. coli BL21 (DE3) with pRARE2, purified (Glutathione-Sepharose, eluted with Prescission protease)
T1 sequence (looked up): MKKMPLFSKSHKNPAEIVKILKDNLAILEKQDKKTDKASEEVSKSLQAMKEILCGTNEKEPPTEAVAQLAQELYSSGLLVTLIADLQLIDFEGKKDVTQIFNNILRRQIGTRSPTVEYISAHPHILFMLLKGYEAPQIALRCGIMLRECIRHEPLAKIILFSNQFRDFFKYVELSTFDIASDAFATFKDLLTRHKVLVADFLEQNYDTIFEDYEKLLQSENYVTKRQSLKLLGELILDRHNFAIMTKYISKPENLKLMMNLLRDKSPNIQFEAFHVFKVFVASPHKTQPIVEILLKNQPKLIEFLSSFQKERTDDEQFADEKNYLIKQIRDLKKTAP
Assay: crystal structure; MST3 (19-289) and MO25β mixed in an equimolar ratio, complex isolated on an S200 gel filtration column (20 mM Tris pH 7.5, 200 mM NaCl, 0.5 mM TCEP); sitting drop at 4 °C; two MST3:MO25β complexes in the asymmetric unit; no ATP or inhibitor
Details: both partners purified

B1: MST3 catalytic fragment (residues 19–289) (domain or fragment)
chain: not shown
notes: numbers count on: isoform b (NCBI NP_001027467.2); plasmids are described in the supplementary section; also called MST3 catalytic domain; source: E. coli BL21 (DE3) with pRARE2, purified (Ni-Sepharose, S200 gel filtration)
binding result: binds
